IntAct's records for PubMed 32296183

Legend:
CCDC43 = CCDC43 (UniProt Q86WV7)
sft2a_human SFT2D1 = sft2a_human SFT2D1 (UniProt Q8WV19)
snx2_human SNX2 = snx2_human SNX2 (UniProt O60749)
tri37_human TRIM37 = tri37_human TRIM37 (UniProt O94972)
crcm_human MCC = crcm_human MCC (UniProt P23508)
tnip1_human TNIP1 = tnip1_human TNIP1 (UniProt Q15025)
syph_human SYP = syph_human SYP (UniProt P08247)
fads6_human FADS6 = fads6_human FADS6 (UniProt Q8N9I5)
tbcd1_human TBC1D1 = tbcd1_human TBC1D1 (UniProt Q86TI0)
xrcc4_human XRCC4 = xrcc4_human XRCC4 (UniProt Q13426)
pick1_human PICK1 = pick1_human PICK1 (UniProt Q9NRD5)
pick1_human PICK1, sequence (Q9NRD5 whole entry): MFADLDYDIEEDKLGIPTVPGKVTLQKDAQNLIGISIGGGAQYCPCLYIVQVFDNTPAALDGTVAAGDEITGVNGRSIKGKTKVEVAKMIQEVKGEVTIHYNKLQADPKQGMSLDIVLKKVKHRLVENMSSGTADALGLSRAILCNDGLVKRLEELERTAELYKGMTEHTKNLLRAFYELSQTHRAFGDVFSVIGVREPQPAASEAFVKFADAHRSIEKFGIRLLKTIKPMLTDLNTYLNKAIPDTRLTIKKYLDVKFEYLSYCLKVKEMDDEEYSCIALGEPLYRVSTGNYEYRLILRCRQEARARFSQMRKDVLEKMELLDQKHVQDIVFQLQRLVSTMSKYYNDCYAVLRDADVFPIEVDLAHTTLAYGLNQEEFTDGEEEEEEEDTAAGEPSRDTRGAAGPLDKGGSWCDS

mgst2_human MGST2 = mgst2_human MGST2 (UniProt Q99735)
mgst2_human MGST2, sequence (Q99735 whole entry): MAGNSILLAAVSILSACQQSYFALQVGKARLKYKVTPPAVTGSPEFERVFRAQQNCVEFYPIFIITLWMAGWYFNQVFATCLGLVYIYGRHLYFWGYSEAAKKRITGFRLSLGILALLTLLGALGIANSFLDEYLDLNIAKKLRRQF

sng3_human SYNGR3 = sng3_human SYNGR3 (UniProt O43761)
sng3_human SYNGR3, sequence (O43761 whole entry): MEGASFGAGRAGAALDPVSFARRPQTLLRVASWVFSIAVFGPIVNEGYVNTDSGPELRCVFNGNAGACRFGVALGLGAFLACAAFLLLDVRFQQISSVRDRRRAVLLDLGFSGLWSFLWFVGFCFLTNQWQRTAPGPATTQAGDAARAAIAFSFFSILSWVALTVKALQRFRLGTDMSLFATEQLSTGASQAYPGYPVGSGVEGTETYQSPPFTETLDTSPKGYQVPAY

car10_human CARD10 = car10_human CARD10 (UniProt Q9BWT7)
cntrb_human CNTROB = cntrb_human CNTROB (UniProt Q8N137)
ppip1_human PSTPIP1 = ppip1_human PSTPIP1 (UniProt O43586)
zn639_human ZNF639 = zn639_human ZNF639 (UniProt Q9UID6)
kank2_human KANK2 = kank2_human KANK2 (UniProt Q63ZY3)
kank2_human KANK2, sequence (Q63ZY3 whole entry): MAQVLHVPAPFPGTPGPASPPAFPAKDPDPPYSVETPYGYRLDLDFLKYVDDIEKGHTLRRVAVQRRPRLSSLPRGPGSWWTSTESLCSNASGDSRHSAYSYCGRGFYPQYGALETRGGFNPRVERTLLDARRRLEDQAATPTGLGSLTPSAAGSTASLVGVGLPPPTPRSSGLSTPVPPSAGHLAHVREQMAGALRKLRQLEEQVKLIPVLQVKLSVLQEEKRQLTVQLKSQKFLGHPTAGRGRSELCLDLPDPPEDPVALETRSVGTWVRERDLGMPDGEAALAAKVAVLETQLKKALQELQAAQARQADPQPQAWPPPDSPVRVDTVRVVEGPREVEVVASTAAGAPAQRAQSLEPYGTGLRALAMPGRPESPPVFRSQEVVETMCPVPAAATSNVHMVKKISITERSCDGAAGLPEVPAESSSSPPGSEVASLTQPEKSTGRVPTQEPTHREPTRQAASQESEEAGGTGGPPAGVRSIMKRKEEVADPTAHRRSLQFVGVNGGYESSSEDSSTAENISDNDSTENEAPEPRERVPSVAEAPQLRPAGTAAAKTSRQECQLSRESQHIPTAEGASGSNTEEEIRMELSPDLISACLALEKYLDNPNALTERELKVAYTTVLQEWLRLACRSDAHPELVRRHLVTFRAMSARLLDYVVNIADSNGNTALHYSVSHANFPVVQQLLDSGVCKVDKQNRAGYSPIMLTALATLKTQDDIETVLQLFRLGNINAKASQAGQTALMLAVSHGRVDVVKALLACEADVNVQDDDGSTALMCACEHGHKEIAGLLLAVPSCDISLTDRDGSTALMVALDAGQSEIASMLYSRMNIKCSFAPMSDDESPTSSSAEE

pnma5_human PNMA5 = pnma5_human PNMA5 (UniProt Q96PV4)
coha1_human COL17A1 = coha1_human COL17A1 (UniProt Q9UMD9)
sp4_human SP4 = sp4_human SP4 (UniProt Q02446)
zbt14_human ZBTB14 = zbt14_human ZBTB14 (UniProt O43829)
zbt14_human ZBTB14, sequence (O43829 whole entry): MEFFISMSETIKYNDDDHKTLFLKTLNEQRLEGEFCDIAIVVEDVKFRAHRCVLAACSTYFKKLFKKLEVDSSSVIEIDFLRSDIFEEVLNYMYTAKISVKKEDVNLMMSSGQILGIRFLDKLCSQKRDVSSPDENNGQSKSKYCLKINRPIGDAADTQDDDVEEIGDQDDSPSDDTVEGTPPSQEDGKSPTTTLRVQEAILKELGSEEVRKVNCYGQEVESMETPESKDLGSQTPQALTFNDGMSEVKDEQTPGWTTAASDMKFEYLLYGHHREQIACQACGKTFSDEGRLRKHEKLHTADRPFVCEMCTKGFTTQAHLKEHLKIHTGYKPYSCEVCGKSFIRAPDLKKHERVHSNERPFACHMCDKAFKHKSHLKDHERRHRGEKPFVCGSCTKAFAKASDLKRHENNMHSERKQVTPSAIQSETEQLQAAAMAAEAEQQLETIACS

trbp2_human TARBP2 = trbp2_human TARBP2 (UniProt Q15633)
klh12_human KLHL12 = klh12_human KLHL12 (UniProt Q53G59)
klh12_human KLHL12, sequence (Q53G59 whole entry): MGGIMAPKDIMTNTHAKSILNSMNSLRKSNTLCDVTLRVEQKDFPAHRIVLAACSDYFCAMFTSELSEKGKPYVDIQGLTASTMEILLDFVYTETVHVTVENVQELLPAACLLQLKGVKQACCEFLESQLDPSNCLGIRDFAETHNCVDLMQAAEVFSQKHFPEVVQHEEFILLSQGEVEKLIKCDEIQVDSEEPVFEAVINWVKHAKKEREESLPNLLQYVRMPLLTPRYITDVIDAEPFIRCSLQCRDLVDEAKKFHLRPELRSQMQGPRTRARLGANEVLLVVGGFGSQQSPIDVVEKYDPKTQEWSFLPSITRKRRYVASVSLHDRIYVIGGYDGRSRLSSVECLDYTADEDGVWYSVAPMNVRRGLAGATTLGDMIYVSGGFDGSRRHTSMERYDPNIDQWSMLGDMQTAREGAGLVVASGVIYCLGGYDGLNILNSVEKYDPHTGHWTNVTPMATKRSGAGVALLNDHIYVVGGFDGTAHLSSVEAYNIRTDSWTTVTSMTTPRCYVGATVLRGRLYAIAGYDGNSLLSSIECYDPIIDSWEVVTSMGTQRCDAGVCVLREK

msd4_human MSANTD4 = msd4_human MSANTD4 (UniProt Q8NCY6)
msd4_human MSANTD4, sequence (Q8NCY6 whole entry): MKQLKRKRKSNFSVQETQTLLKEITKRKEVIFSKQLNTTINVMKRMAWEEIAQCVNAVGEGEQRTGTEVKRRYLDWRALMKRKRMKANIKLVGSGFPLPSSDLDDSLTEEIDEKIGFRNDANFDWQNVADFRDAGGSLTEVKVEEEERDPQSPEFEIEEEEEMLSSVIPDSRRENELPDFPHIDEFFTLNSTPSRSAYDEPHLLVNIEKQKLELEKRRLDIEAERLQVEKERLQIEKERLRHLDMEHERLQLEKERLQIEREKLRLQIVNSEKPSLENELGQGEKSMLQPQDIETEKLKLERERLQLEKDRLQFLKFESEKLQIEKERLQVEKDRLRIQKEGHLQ

flowr_human CACFD1 = flowr_human CACFD1 (UniProt Q9UGQ2)
rprm_human RPRM = rprm_human RPRM (UniProt Q9NS64)
thap1_human THAP1 = thap1_human THAP1 (UniProt Q9NVV9)

CCDC14, Q49A88-3, sequence (Q49A88 other isoform, or with tags, fused parts or gaps): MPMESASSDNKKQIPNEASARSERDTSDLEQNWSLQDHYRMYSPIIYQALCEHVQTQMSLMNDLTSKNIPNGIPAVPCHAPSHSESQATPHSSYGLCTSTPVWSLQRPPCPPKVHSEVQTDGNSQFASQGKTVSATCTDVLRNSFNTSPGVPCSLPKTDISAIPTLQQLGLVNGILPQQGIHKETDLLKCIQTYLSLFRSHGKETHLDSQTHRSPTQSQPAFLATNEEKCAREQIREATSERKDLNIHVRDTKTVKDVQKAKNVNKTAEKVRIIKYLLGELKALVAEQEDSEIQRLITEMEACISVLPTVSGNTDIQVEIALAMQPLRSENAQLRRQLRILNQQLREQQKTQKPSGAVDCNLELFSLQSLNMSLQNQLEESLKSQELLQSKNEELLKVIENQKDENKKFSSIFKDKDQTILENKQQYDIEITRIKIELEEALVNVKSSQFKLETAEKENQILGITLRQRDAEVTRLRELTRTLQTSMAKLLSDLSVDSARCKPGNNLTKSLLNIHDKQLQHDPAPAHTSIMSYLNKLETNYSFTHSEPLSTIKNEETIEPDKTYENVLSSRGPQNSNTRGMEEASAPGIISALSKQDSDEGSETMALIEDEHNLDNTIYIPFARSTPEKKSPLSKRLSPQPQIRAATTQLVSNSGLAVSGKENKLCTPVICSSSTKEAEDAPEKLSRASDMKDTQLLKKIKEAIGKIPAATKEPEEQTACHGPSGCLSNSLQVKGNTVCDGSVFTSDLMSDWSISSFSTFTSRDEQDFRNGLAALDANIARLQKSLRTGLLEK
TMEM239, Q8WW34-2, sequence (Q8WW34 44-195): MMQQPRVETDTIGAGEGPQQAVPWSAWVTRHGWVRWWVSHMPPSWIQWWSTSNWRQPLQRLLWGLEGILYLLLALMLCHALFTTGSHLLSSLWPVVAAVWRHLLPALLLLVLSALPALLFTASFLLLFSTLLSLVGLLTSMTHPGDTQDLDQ
CAMK2B, Q13554-3, sequence (Q13554 other isoform, or with tags, fused parts or gaps): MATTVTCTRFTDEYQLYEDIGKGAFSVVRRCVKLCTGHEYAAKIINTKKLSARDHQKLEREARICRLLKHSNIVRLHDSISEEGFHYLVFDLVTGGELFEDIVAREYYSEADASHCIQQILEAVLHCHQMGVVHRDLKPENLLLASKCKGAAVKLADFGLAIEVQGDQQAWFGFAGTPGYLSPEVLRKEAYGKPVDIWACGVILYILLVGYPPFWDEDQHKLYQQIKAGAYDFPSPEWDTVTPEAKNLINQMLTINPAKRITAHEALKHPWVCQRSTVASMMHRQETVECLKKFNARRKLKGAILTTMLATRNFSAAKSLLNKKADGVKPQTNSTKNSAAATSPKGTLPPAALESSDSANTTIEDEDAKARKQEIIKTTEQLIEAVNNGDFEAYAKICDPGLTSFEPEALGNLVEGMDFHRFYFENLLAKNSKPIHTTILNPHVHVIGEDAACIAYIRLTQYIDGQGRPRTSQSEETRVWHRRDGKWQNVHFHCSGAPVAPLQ

- effect of a mutation on the interaction (CCDC43): disrupting interaction strength
- effect of a mutation on the interaction (sft2a_human SFT2D1): disrupting interaction strength
- effect of a mutation on the interaction (snx2_human SNX2): with no effect
- effect of a mutation on the interaction (tri37_human TRIM37): with no effect
- effect of a mutation on the interaction (crcm_human MCC): disrupting interaction strength
- effect of a mutation on the interaction (tnip1_human TNIP1): with no effect
- effect of a mutation on the interaction (syph_human SYP): with no effect
- effect of a mutation on the interaction (fads6_human FADS6): with no effect
- effect of a mutation on the interaction (tbcd1_human TBC1D1): with no effect
- effect of a mutation on the interaction (xrcc4_human XRCC4): with no effect
- effect of a mutation on the interaction (pick1_human PICK1): disrupting interaction strength
- effect of a mutation on the interaction (mgst2_human MGST2): with no effect
- effect of a mutation on the interaction (CAMK2B, Q13554-3): disrupting interaction strength
- effect of a mutation on the interaction (sng3_human SYNGR3): with no effect
- effect of a mutation on the interaction (car10_human CARD10): disrupting interaction strength
- effect of a mutation on the interaction (cntrb_human CNTROB): with no effect
- effect of a mutation on the interaction (ppip1_human PSTPIP1): with no effect
- effect of a mutation on the interaction (SYNGR1, O43759-2): disrupting interaction strength
- effect of a mutation on the interaction (zn639_human ZNF639): with no effect
- effect of a mutation on the interaction (kank2_human KANK2): disrupting interaction strength
- effect of a mutation on the interaction (pnma5_human PNMA5): disrupting interaction strength
- effect of a mutation on the interaction (coha1_human COL17A1): disrupting interaction strength
- effect of a mutation on the interaction (sp4_human SP4): with no effect
- effect of a mutation on the interaction (zbt14_human ZBTB14): with no effect
- effect of a mutation on the interaction (trbp2_human TARBP2): disrupting interaction strength
- effect of a mutation on the interaction (IKZF1, Q13422-7): with no effect
- effect of a mutation on the interaction (klh12_human KLHL12): disrupting interaction strength
- effect of a mutation on the interaction (msd4_human MSANTD4): disrupting interaction strength
- effect of a mutation on the interaction (TMEM239, Q8WW34-2): disrupting interaction strength
- effect of a mutation on the interaction (flowr_human CACFD1): disrupting interaction strength
- effect of a mutation on the interaction (rprm_human RPRM): disrupting interaction strength
- effect of a mutation on the interaction (thap1_human THAP1): disrupting interaction strength
- effect of a mutation on the interaction (CCDC14, Q49A88-3): disrupting interaction strength
Substance: Bifunctional polynucleotide phosphatase/kinase (Homo sapiens), Q96T60 E326K
